In patent publication US20060148683A1, “Detection and treatment of intravascular lesions” (priority 2001, published 2006):

Tested on: thrombus
Test: Treatment of a thrombus in guinea pig inferior vena cava monitored by catheter fluorescence detection
Assay type: in vivo
Conditions: guinea pig IVC thrombus; tPA delivered through the catheter after optical agent 0.02 μmol/kg
Protocol: A guinea pig (Harley, male) is anaesthetized. […] The vessel is allowed to recover for 10 mins. A 1 cm portion of the IVC is clamped and human thrombin (50 μL, 4 units) is injected into the vessel to promote thrombus formation. The lower clamp is opened and closed to allow partial blood flow to the segment. After 2-3 mins., the clips are removed. The thrombus is allowed to age in the animal for 30 mins. At this point, the optical agent is administered at a dose of 0.02 μmol/kg, via injection into the jugular vein. After 30 mins., a catheter with an optical fluorescence detector is inserted into the IVC and the thrombus visualized by detecting the fluorescence signal emitted by the fibrin-optical agent complexes on the thrombus. […] TNKASE™ (Tenecteplase) is a commercially approved tissue plasminogen activator (tPA) produced by recombinant DNA technology and sold by Genetech. The drug is administered intravenously at a dose of 30-50 mg, depending on patient weight.

B1: Tissue plasminogen activator (protein, UniProt P00750 36-562, looked up)
Tissue-type plasminogen …: SYQVICRDEKTQMIYQQHQSWLRPVLRSNRVEYCWCNSGRAQCHSVPVKSCSEPRCFNGGTCQQALYFSDFVCQCPEGFAGKCCEIDTRATCYEDQGISYRGTWSTAESGAECTNWNSSALAQKPYSGRRPDAIRLGLGNHNYCRNPDRDSKPWCYVFKAGKYSSEFCSTPACSEGNSDCYFGNGSAYRGTHSLTESGASCLPWNSMILIGKVYTAQNPSAQALGLGKHNYCRNPDGDAKPWCHVLKNRRLTWEYCDVPSCSTCGLRQYSQPQFRIKGGLFADIASHPWQAAIFAKHRRSPGERFLCGGILISSCWILSAAHCFQERFPPHHLTVILGRTYRVVPGEEEQKFEVEKYIVHKEFDDDTYDNDIALLQLKSDSSRCAQESSVVRTVCLPPADLQLPDWTECELSGYGKHEALSPFYSERLKEAHVRLYPSSRCTSQHLLNRTVTDNMLCAGDTRSGGPQANLHDACQGDSGGPLVCLNDGRMTLVGIISWGLGCGQKDVPGVYTKVTNYLDWIRDNMRP
notes: thrombolytic
Optical fluorescence signal of fibrin-optical agent complexes on thrombus (clot dissolution and lysis): optical fluorescence signal decreases
